Measured values from the DeepSol protein solubility set.

Assay: soluble on expression in E. coli; label from the status in PepcDB or PDB records

| Sequence | soluble on expression in E. coli |
| --- | --- |
| KRRLEVKGEVNSITVYDDFAHHPEAILATLTALRDKVGGGVRILAVLEPRSNTMKMGVHKDDIAPALGRADAVFMLQPEQLSWEVADIANQCVQPAYWNANLDRLVDMIVAKAQPTDHILVMSNGSFGGIHQKILDKLKLK | not soluble |
| DSQDWHDWIDQALTERRLLLYFQPVVDCLDTQRVLHHKVLARLLDPQATAIAAGRFLPWIERFGWAARMDLAMLEQSLEHLRRHPRPLALSLSAASVRNAQTFAPLLALLKAHPQEARQLTLELDERHLPAAAELERLSQVLRELGCGLGLQHFGGRFSLIGNLTHLGLAYLKLDGCYLHAVDREGDKRLFIEAVYRTTHSIDLPLIAEQVETLGELEVLREMGLRGAMGRLFGSPAPWSGDA | soluble |
| SPASGPGPRRVQRRAWPPDKEQEKEKKSVICVEGNIASGKTTCLEFFSNATDVEVLTEPVSKWRNVRGHNPLGLMYHDASRWGLTLQTYVQLTMLDRHTRPQVSSVRLMERSIHSARYIFVENLYRSGKMPEVDYVVLSEWFDWILRNMDVSVDLIVYLRTNPETCYQRLKKRCREEEKVIPLEYLEAIHHLHEEWLIKGSLFPMAAPVLVIEADHHHMERMLELFEQNRDRILTPENRKHCP | soluble |
| MHHHHHHGSTKTNSEILEQLKQASDGLLFMSESEYPFEVFLWEGSAPPVTHEIVLQQTGHGQDAPFKVVDIDSFFSRATTPQDWYEDEENAVVAKFQKLLEVIKSNLKNPQVYRLGEVELDVYVIGETPAGNLAGISTKVVET | soluble |
| MGSSHHHHHHSSGLVPRGSHMSNQEAIGLIDSGVGGLTVLKEALKQLPNERLIYLGDTARCPYGPRPAEQVVQFTWEMADFLLKKRIKMLVIACNTATAVALEEIKAALPIPVVGVILPGARAAVKVTKNNKIGVIGTLGTIKSASYEIAIKSKAPAIEVTSLACPKFVPIVESNQYRSSVAKKIVAETLQALQLKGLDTLILGCTHYPLLRPVIQNVMGSHVTLIDSGAETVGEVSMLLDYFDIAHTPEAPTQPHEFYTTGSAKMFEEIASSWLGIENLKAQQIHLGGNEND | soluble |
| MEPVTSSEREAELERELDLLRKELNIEQKMNSELKRLMIATLSDELQGQVEALTEDKVRLAHRVDEYMGKLMVEDEESDRLRIDRDVWKCKFLAQSIRCDELTSKNEYLLKTLVGIQQAVKTKNVTSDEISDFTQLDLQPLFHRSPCEERVRPITAKYTNLTIACCKNCMGRDIQLL | not soluble |
| MSLRNPIRIFIVDDHEIVRQGLKVIINQEQDFELVGESNGQKGLLKEIAEAHPDVLLLDIRISGSDGFDIASQLNEKFPSIKILIISGYESELYLVEALDHKVSGFIPKGSSRDYVCSAIRMVALGGTVWHGELLYRVIRGLSRLGNEPNDTKVQIGKSHLKPRELKVLSLLAKGKLNKEICFELQISMDTVKKDIHQLKSKYGVFNRTQLATIATEMQLKEGHHHHHH | not soluble |
| MGSDKIHHHHHHMWYMRWEGVSDGLKVTAGSVIQRDDLVQYTTTDDATSSGGVLRVPIACSSAGAVGNADDGTALILVTPVNGLPSSGVADTLTGGFDTEELETWRARVIERYYWTPQGGADGDYVVWAKEVPGITRAWTYRHLMGTGTVGVMIASSDLINPIPEESTETAARQHIGPLAPVAGSDLYVFRPVAHTVDFHIRVTPDTPEIRAAITAELRSFLLRDGYPQGELKVSRISEAISGANGEYSHQLLAPVDNISIAKNELAVLGTISWT | not soluble |
| MAHHHHHHMTRDDGTQVAQLLSEGKYNLPMFLRYLKASSMEGDQPDKSLLLGILLQSLARFQTSDFTACMCLVPSHVQDSPSVEKELNYIYGLENLLSCGLFARFWTQWSSVKEHLPESFHFEARVRTSILETICITMESIPTEKLATYLAVSPDQVQKVVHNAMKDSEDRDMKVMAYDSGSVVFHRNRFNYPQAGAAQDAIRFTDVSSVIHNDVPRRGAAVAADETRDVRARTWARMADE | soluble |
| MRVISGEYGGRRLKALDGDNTRPTTDKVKESIFNMIGPYFDGGMALDLYSGSGGLAIEAVSRGMDKSICIEKNFAALKVIKENIAITKEPEKFEVRKMDANRALEQFYEEKLQFDLVLLDPPYAKQEIVSQLEKMLERQLLTNEAVIVCETDKTVKLPETIGTLKKTRETVYGITQVTIYRQEA | soluble |
| MSASLVETVDIEAPVAVTWALWSDVSRWPSFLSHVRLVEPLDERRFAWQLSLPGADKNFVAELTEVIPGDRIAWQTTEGVHHAGVVTFHRLSDTSSRVTLQIEYDPKGFVEHIGALTNLDSTLANYDLGEFQKLAETAAAGLEHHHHHH | not soluble |
| MFERNREATMIFNIQRYSTHDGPGIRTVVFLKGCSLGCRWCQNPESRARTQDLLYDPRLCLEGCKLCAKTAPEVIERALNGLLIHREKLTPEHFTALTDCCPTQALTVCGEVKSVEEIMATVLRDKPFYDRSGGGLTLSGGEPFMQPEMATALLQASHEAGIHTAVETCLHVPWKYIAPSLPYIDLFLADLKHVADAPFKQWTDGNAARVLDNLKKLAAAGKKIIIRVPLIQGFNADETSVKAITDFAADELHVSEIHFLPYHTLGINKYHLLNLPYDAPEKPLDAPELLDFAQQYACQKGLTATLRG | not soluble |
| SMQEKIMRELHVKPSIDPKQEIEDRVNFLKQYVKKTGAKGFVLGISGGQDSTLAGRLAQLAVESIREEGGDAQFIAVRLPHGTQQDEDDAQLALKFIKPDKSWKFDIKSTVSAFSDQYQQETGDQLTDFNKGNVKARTRMIAQYAIGGQEGLLVLGTDHAAEAVTGFFTKYGDGGADLLPLTGLTKRQGRTLLKELGAPERLYLKEPTADLLDEKPQQSDETELGISYDEIDDYLEGKEVSAKVSEALEKRYSMTEHKRQVPASMFDDWWK | soluble |
| FRVERSQPASQPLTYESGPDEVRAWLEAKAFSPRIVENLGILTGPQLFSLNKEELKKVCGEEGVRVYSQLTMQKAFLEKQQSGSEL | soluble |
| MNVTTPEVAFREYQTNCLASYISADPDITPSNLILQGYSGTGKTYTLKKYFNANPNLHAVWLEPVELVSWKPLLQAIARTVQYKLKTLYPNIPTTDYDPLQVEEPFLLVKTLHNIFVQYESLQEKTCLFLILDGFDSLQDLDAALFNKYIKLNELLPKDSKINIKFIYTMLETSFLQRYSTHCIPTVMFPRYNVDEVSTILVMSRCGELMEDSCLRKRIIEEQITDCTDDQFQNVAANFIHLIVQAFHSYTGNDIFALNDLIDFKWPKYVSRITKENIFEPLALYKSAIKLFLSTDDNLSENGQGESAITTNRDDLENSQTYDLSIISKYLLIASYICSYLEPRYDASIFSRKTRIIQGRAAYGRRKKKEVNPRYLQPSLFAIERLLAIFQAIFPIQGKAESGSLSALREESLMKANIEVFQNLSELHTLKLIATTMNKNIDYLSPKVRWKVNVPWEIIKEISESVHFNISDYFSDIHE | soluble |
| MGSDKIHHHHHHMRFIAGPLNKQLLQNLLGEVIESCTRVRAAVAYASRDNMKLFEACAQHLKPLEFFGRYDHTVAVDPAVLKWFLDKASPNYDCKLVPDILHAKIIWWVDAGAYIGSANLSDRAWISNIEAGTFLPHDELVETGMERELQRFFEEVDDRARPLTKEIYQEQLRLADRRSELSKREYGLEQQFDKDRLLPKNHGLVFVDTKRSSEKRFQKFEQDWNDTLQVMRSIASRVAAPGAKPAWIDASVAPGVQADQFLHAYYYKQVKDGNRHPYEEFFDRNSKNPELALRDALEWWHDADFDHSFEERTIYEWSPRLRELLARDRILKLTEQEFVDAVSRVHAIRDHAIKQENEHLGLPDRPQAGDDKVEKFGEWLWRQRSREGRTVLELLNYVVWGNGSVSARLWNAIRSDDWAIPHIGLSSLGEIVGWARPDEYPPRNMRTSKGLRALGYNVRIGV | not soluble |
| MTTPTFDINAAIQALREGKDLTGKDGILTPLIKQLTEAALAAELDSHLTSTEGANRKNGKTTKTIKSPLGNFELNTPRDRAGTFEPQLVKKHQTQLTDEMERKIIGLFSLGSSYQDIRAHIEDMYGMSVSNGTVNAITDKLLPELQAWRERELEPLYPVIWLDAIHYKIKENGRFISKAVYTILALNVDGKKELLGLYLSDNEGAHHWLSVLTDLYNRGVKDILIACVDGLKGFPEAIATIYPQTEVQLCVIHQIRNSIKYVASKHQKAFMADLKCVYKAATLNAAEMALDELETKWGDKYPVVIKSWRNKWALLSVYFKYPDYVRTAIYTTNAVEAVHRQFRKLAKTKGGFANENSLLKLLYAGILKASERWTHP | soluble |
| YAEIRARLYLMTGQTNKALNELRRLCNRFPEVNEFRLKYAGTLLDSEKYDEAYEQLQLIARTDSTSGLYHFAMASYYLGTNEKEAAINEMIKVAADKDVAPEQKLPIILRFIGTDTDEEDAPKKEYNILLEKILASHPTEVDARLFYAELLEMQGDSIHAMEVCRPITEFAPKEERAWKFMLGRAVTGQNHTEVHRISEQARQYLPGVPLFYLYDAISYYIEKKGSEAKHILQEALEHIDAEKDPNGLSDIYSQLGDLAYEENKPEEAFANYEKALELNPRNVGVLNNYAYFLAKEGGDLAKAERMAAQCVKLLPDNAVSLDTYGWVFFLRENYTLAKLYIEKALGLAADNPDADVVEHHGDVLYMLGEKEKAMLEWKRAKEIGGGGSPMLDKKIEQGKYIPEKKK | not soluble |
| MSLEAVKTIEKEKKDLEQKRIEEATEEEIKPGDHVKMEGGTSVGKVVEVKSGTALVDFGFLRLKVPVSKLRKTKKEEKKETSTFSYKPSSFRTEIDIRGMTVEEAEPVVKKFIDDLMMNGISKGYIIHGKGTGKLASGVWEILRKDKRVVSFRFGTPSEGGTGVTVVEVKEGHHHHHH | soluble |
| GAMGMNGIDDLLNINDRIKQVQNERNELASKLQNLKQSLASNDTGGGSGGGSDSSDLLQREAILANELNILDNLKTFLNLIKEVKTNLNILELENCYYSLQSLRKKMRNNAAYLKQSFNFQQSISTYVDTLHLELVSTLYKILTNGFWKITENSIQFTPTVEWGKDKVHIEYDTFMDFVAQQYFPKGSLDNQAWFILDMTSADSQEQVRAKLNTIMKEYMNLSRIVSMIKNSIFISGKEISYENEKNILVFSKSSSHGQHCVSTVLTSFEAVCDFMLDGLAFRDRKTLSYELGPLFNTEFTKFVKNNASIILESLDSPLKNLVSVINNKLTRLVAKSEVTNWTHSGKEIQDLLMN | soluble |
| MGSDKIHHHHHHMEEYIRRILTLGRKRLEKFALKGGKPLPERPLIVKLMEEIRGFLGSGENRVILLYGLRGVGKTTMLAQLYLKLIGEVSGERILYASVDEIKMLGYRLKDVFESYEHIIGERLEELREPTIFLLDEVHYDEEWDLALKVAYDRARNLMIVATGSSAIELKLSTDLARRAKRFHITPLTFTEYLLLKGIRVNEEVKKVLKRLLLAGEVEGIEEEIRKTFLTFDPIEVERYLLYGSLPLALSSREPLEETYSIVERIIRWDLAKMGFSQEVLEKAFLLMLMLASGEALNYDRLTSRLGISRPVLAKLLSAFENLEVIFPVRAYGSLGKAIRKTPKYKFLAPVIRTSILNHFGLLEVNEKILGNLLEDVVALYLYIIARELSGSVTYDAEKGGADFILTTPIGRIVLEVGWGKKGKEQVKRTMKKIGAERGIIIHGGDFREKNGVIWLPKEWFLLML | not soluble |
| MSVELRDATVDDLSGIMEIYNDAVVNTTAIWNEVVVDLENRKDWFAARTSRGFPVIVAILDGKVAGYASYGDWRAFDGYRHTREHSVYVHKDARGHGIGKRLMQALIDHAGGNDVHVLIAAIEAENTASIRLHESLGFRVVGRFSEVGTKFGRWLDLTCMELKLG | not soluble |
| MKEYLTRSNISYFSIGSGTPIIFLHGLSLDKQSTCLFFEPLSNVGQYQRIYLDLPGMGNSDPISPSTSDNVLETLIEAIEEIIGARRFILYGHSYGGYLAQAIAFHLKDQTLGVFLTCPVITADHSKRLTGKHINILEEDINPVENKEYFADFLSMNVIINNQAWHDYQNLIIPGLQKEDKTFIDQLQNNYSFTFEEKLKNINYQFPFKIMVGRNDQVVGYQEQLKLINHNENGEIVLLNRTGHNLMIDQREAVGFHFDLFLDELNSNN | soluble |
